We go through 18 variants from the RNAGym collection of RNA variant scans (doi:10.1021/acssynbio.7b00057).

The chains are these.
B1: Pistol ribozyme (parent)
chain: GGGUCGUUGUUCCAUAAUCGCGUGGAUAUGGCACGCAAGUUUCUACCGGGCACCGUAAAUGUCCGACUGGAGCCGUUCGGGCGGCUAUAAACAGACCUCAGGCCCGAAGCGUGGCGGCACCUGCCGCCGGUGGUAAAAAAGAUCGGAAGAGCACACGUCU

Variants of B1 are the subject of this data set. The experiment in a line: aptazyme ON/OFF ratio, guanine; higher = stronger switching; co-transcriptional cleavage with and without guanine.
On to GGGUCGACUUCUUAUAAUCGCGUGGAUAUGGCACGCAAGUUUCUACCGGGCACCGUAAAUGUCCGACUGGAGCCGUUCGGGCGGCUAUAAACAGACCUCAGGCCCGAAGCGUGGCGGCACCUGCCGCCGGUGGUAAAAAAGAUCGGAAGAGCACACGUCU, for which the “aptazyme ON/OFF ratio” value is 1.17.
As for GGGUCGCGACACGAUAAUCGCGUGGAUAUGGCACGCAAGUUUCUACCGGGCACCGUAAAUGUCCGACUGGAGCCGUUCGGGCGGCUAUAAACAGACCUCAGGCCCGAAGCGUGGCGGCACCUGCCGCCGGUGGUAAAAAAGAUCGGAAGAGCACACGUCU, the figure is 1.07; as for GGGUCGACCGUGUAUAAUCGCGUGGAUAUGGCACGCAAGUUUCUACCGGGCACCGUAAAUGUCCGACUGGAGCCGUUCGGGCGGCUAUAAACAGACCUCAGGCCCGAAGCGUGGCGGCACCUGCCGCCGGUGGUAAAAAAGAUCGGAAGAGCACACGUCU, 1.13; as for GGGUCGCUGUUAUAUAAUCGCGUGGAUAUGGCACGCAAGUUUCUACCGGGCACCGUAAAUGUCCGACUGGAGCCGUUCGGGCGGCUAUAAACAGACCUCAGGCCCGAAGCGUGGCGGCACCUGCCGCCGGUGGUAAAAAAGAUCGGAAGAGCACACGUCU, 1.19.
As for GGGUCGACACUUCAUAAUCGCGUGGAUAUGGCACGCAAGUUUCUACCGGGCACCGUAAAUGUCCGACUGGAGCCGUUCGGGCGGCUAUAAACAGACCUCAGGCCCGAAGCGUGGCGGCACCUGCCGCCGGUGGUAAAAAAGAUCGGAAGAGCACACGUCU, the figure is 1.35; as for GGGUCGAUGGCGCAUAAUCGCGUGGAUAUGGCACGCAAGUUUCUACCGGGCACCGUAAAUGUCCGACUGGAGCCGUUCGGGCGGCUAUAAACAGACCUCAGGCCCGAAGCGUGGCGGCACCUGCCGCCGGUGGUAAAAAAGAUCGGAAGAGCACACGUCU, 1.64; as for GGGUCGGAAGUGCAUAAUCGCGUGGAUAUGGCACGCAAGUUUCUACCGGGCACCGUAAAUGUCCGACUGGAGCCGUUCGGGCGGCUAUAAACAGACCUCAGGCCCGAAGCGUGGCGGCACCUGCCGCCGGUGGUAAAAAAGAUCGGAAGAGCACACGUCU, 1.09.
In the case of GGGUCGCUGCUUAAUAAUCGCGUGGAUAUGGCACGCAAGUUUCUACCGGGCACCGUAAAUGUCCGACUGGAGCCGUUCGGGCGGCUAUAAACAGACCUCAGGCCCGAAGCGUGGCGGCACCUGCCGCCGGUGGUAAAAAAGAUCGGAAGAGCACACGUCU it was 1.3.
Turning to GGGUCGCCAAUUAAUAAUCGCGUGGAUAUGGCACGCAAGUUUCUACCGGGCACCGUAAAUGUCCGACUGGAGCCGUUCGGGCGGCUAUAAACAGACCUCAGGCCCGAAGCGUGGCGGCACCUGCCGCCGGUGGUAAAAAAGAUCGGAAGAGCACACGUCU, the “aptazyme ON/OFF ratio” value was 1.14.
In the case of GGGUCGCUCCCCAAUAAUCGCGUGGAUAUGGCACGCAAGUUUCUACCGGGCACCGUAAAUGUCCGACUGGAGCCGUUCGGGCGGCUAUAAACAGACCUCAGGCCCGAAGCGUGGCGGCACCUGCCGCCGGUGGUAAAAAAGAUCGGAAGAGCACACGUCU it was 1.02; in that of GGGUCGGGCAACAAUAAUCGCGUGGAUAUGGCACGCAAGUUUCUACCGGGCACCGUAAAUGUCCGACUGGAGCCGUUCGGGCGGCUAUAAACAGACCUCAGGCCCGAAGCGUGGCGGCACCUGCCGCCGGUGGUAAAAAAGAUCGGAAGAGCACACGUCU, 1.06; in that of GGGUCGGGUAUGUAUAAUCGCGUGGAUAUGGCACGCAAGUUUCUACCGGGCACCGUAAAUGUCCGACUGGAGCCGUUCGGGCGGCUAUAAACAGACCUCAGGCCCGAAGCGUGGCGGCACCUGCCGCCGGUGGUAAAAAAGAUCGGAAGAGCACACGUCU, 1.13.
In the case of GGGUCGAUGCUAGAUAAUCGCGUGGAUAUGGCACGCAAGUUUCUACCGGGCACCGUAAAUGUCCGACUGGAGCCGUUCGGGCGGCUAUAAACAGACCUCAGGCCCGAAGCGUGGCGGCACCUGCCGCCGGUGGUAAAAAAGAUCGGAAGAGCACACGUCU it was 1.12; in that of GGGUCGCGGAUCAAUAAUCGCGUGGAUAUGGCACGCAAGUUUCUACCGGGCACCGUAAAUGUCCGACUGGAGCCGUUCGGGCGGCUAUAAACAGACCUCAGGCCCGAAGCGUGGCGGCACCUGCCGCCGGUGGUAAAAAAGAUCGGAAGAGCACACGUCU, 1.15.
In the case of GGGUCGCGGGUGAAUAAUCGCGUGGAUAUGGCACGCAAGUUUCUACCGGGCACCGUAAAUGUCCGACUGGAGCCGUUCGGGCGGCUAUAAACAGACCUCAGGCCCGAAGCGUGGCGGCACCUGCCGCCGGUGGUAAAAAAGAUCGGAAGAGCACACGUCU, the “aptazyme ON/OFF ratio” value is 1.11.
On to GGGUCGAUUAUAUAUAAUCGCGUGGAUAUGGCACGCAAGUUUCUACCGGGCACCGUAAAUGUCCGACUGGAGCCGUUCGGGCGGCUAUAAACAGACCUCAGGCCCGAAGCGUGGCGGCACCUGCCGCCGGUGGUAAAAAAGAUCGGAAGAGCACACGUCU, for which the “aptazyme ON/OFF ratio” value is 1.19.
Turning to GGGUCGGUGAAGAAUAAUCGCGUGGAUAUGGCACGCAAGUUUCUACCGGGCACCGUAAAUGUCCGACUGGAGCCGUUCGGGCGGCUAUAAACAGACCUCAGGCCCGAAGCGUGGCGGCACCUGCCGCCGGUGGUAAAAAAGAUCGGAAGAGCACACGUCU, the “aptazyme ON/OFF ratio” value was 1.05.
As for GGGUCGCAAUCUAAUAAUCGCGUGGAUAUGGCACGCAAGUUUCUACCGGGCACCGUAAAUGUCCGACUGGAGCCGUUCGGGCGGCUAUAAACAGACCUCAGGCCCGAAGCGUGGCGGCACCUGCCGCCGGUGGUAAAAAAGAUCGGAAGAGCACACGUCU, the figure is 1.17.
